{
  "source": "the MegaScale stability set (Tsuboyama et al. 2023)",
  "parents": {"B1": {"name": "EHEE_rd4_0086 (parent)", "chain": "EIHIRTNGEEQARKVYKMLAKRNYDVKIEQHNGQWVVTAS"}},
  "data": [
    {"variants_of": "B1", "test": "folding stability dG (cDNA display proteolysis); higher = more stable", "details": "PBS, room temperature", "units": {"folding stability dG": "kcal/mol"}, "values": [
      {"variant": "EIHIRTNGEEQARKVYKMLFKRNYDVKIEQHNGQWVVTAS", "folding stability dG": 1.58},
      {"variant": "EIHIRYNGEEQARKVYKMLAKRNYDVKIEQHNGQWVVTAS", "folding stability dG": 1.89},
      {"variant": "EIHIRRNGEEQARKVYKMLAKRNYDVKIEQHNGQWVVTAS", "folding stability dG": 0.963},
      {"variant": "EIHIRMNGEEQARKVYKMLAKRNYDVKIEQHNGQWVVTAS", "folding stability dG": 1.91},
      {"variant": "EIHIRSNGEEQARKVYKMLAKRNYDVKIEQHNGQWVVTAS", "folding stability dG": 1.16},
      {"variant": "KIHIRTNGEEQARKVYKMLAKRNYDVKIEQHNGQWVVTAS", "folding stability dG": 2.3},
      {"variant": "FIHIRTNGEEQARKVYKMLAKRNYDVKIEQHNGQWVVTAS", "folding stability dG": 2.51},
      {"variant": "PIHIRTNGEEQARKVYKMLAKRNYDVKIEQHNGQWVVTAS", "folding stability dG": 1.91},
      {"variant": "DIHIRTNGEEQARKVYKMLAKRNYDVKIEQHNGQWVVTAS", "folding stability dG": 1.72},
      {"variant": "EIHIRTNGEEQARKVYKMLAKRNYDVKIEMHNGQWVVTAS", "folding stability dG": 1.81},
      {"variant": "EIHIRTNGEEQARKVYKMLAKRNYDVKIECHNGQWVVTAS", "folding stability dG": 2.32},
      {"variant": "EIHIRTNGEEQARKVYKMLAKRNYDVKIETHNGQWVVTAS", "folding stability dG": 1.49},
      {"variant": "EIHIRTNGEEQARKVYKMLAKRNYDVKIEQHNGQMVVTAS", "folding stability dG": -0.847},
      {"variant": "EIHIRTNGEEQARKVYKMLAKRNYDVKIEQHNGVWVVTAS", "folding stability dG": 2.27},
      {"variant": "EIHIRTNGEEQARKVYKMLAKRNYDVKIEQHNGPWVVTAS", "folding stability dG": -0.941},
      {"variant": "EIHIRTNGEEQARKVYKMLAKRNYDVKIEQHNGFWVVTAS", "folding stability dG": 2.5},
      {"variant": "EIHIRTNGEEQARKVYKMLAKRNRDVKIEQHNGQWVVTAS", "folding stability dG": 1.3},
      {"variant": "EIHIRTNGEEQARKVYKMLAKRNWDVKIEQHNGQWVVTAS", "folding stability dG": 2},
      {"variant": "EIHIRTNGEEQARKVYKMLAKRNHDVKIEQHNGQWVVTAS", "folding stability dG": 1.18},
      {"variant": "EIHIRTNGEEQARKVYKMLAKRNYDVKIEQHNGQWVVMAS", "folding stability dG": 1.67},
      {"variant": "EIHIRTNGEEQARKVYKMLAKRNYDVKIEQHNGQWVVAAS", "folding stability dG": 0.835},
      {"variant": "EIHIRTNGEEQARKVYKMLAKRNYDVKIEQHNGQWVVDAS", "folding stability dG": 0.023},
      {"variant": "EIHIRTNGEEQARKVYKMLAKRNYDVKIEQHNGQWVVWAS", "folding stability dG": 1.72},
      {"variant": "EIHIRTNGEEQARKVYKMLAKRNYDVKIEQHNGQWVVQAS", "folding stability dG": 0.832},
      {"variant": "EIHIRTNGEEQARKVYKMLAKRNYDVKIEQHNGQWVVIAS", "folding stability dG": 2.59},
      {"variant": "EIHIRTNGEEQARKVYKMLAKRNYDVKIEQHNGQWAVTAS", "folding stability dG": 0.857},
      {"variant": "EIHIRTNGEEQARKVYKMLAKRNYDVKIEQHNGQWMVTAS", "folding stability dG": 1.58},
      {"variant": "EIHIRTNGEEQARKVYKMLAKRNYDVKIEQHNGQWKVTAS", "folding stability dG": 0.658},
      {"variant": "EIHIRTNGPEQARKVYKMLAKRNYDVKIEQHNGQWVVTAS", "folding stability dG": 1.92},
      {"variant": "EIHIRTNGDEQARKVYKMLAKRNYDVKIEQHNGQWVVTAS", "folding stability dG": 0.638},
      {"variant": "EIHIRTNGHEQARKVYKMLAKRNYDVKIEQHNGQWVVTAS", "folding stability dG": 1.55},
      {"variant": "EIHIRTNGWEQARKVYKMLAKRNYDVKIEQHNGQWVVTAS", "folding stability dG": 2.41},
      {"variant": "EIHIRTNGREQARKVYKMLAKRNYDVKIEQHNGQWVVTAS", "folding stability dG": 1.77},
      {"variant": "EIHIRTNGEEQARKVYKMLAKRNYDVKIEQVNGQWVVTAS", "folding stability dG": 2.24},
      {"variant": "EIHIRTNGEEQARKVYKMLAKRNYDVKIEQNNGQWVVTAS", "folding stability dG": 1.72},
      {"variant": "EIHIRTNGEEQARKVYKMLAKRNYDVKIEQENGQWVVTAS", "folding stability dG": 1.85},
      {"variant": "EIHIRTNGEEQARKVYKMLAKRNYDVKIEQYNGQWVVTAS", "folding stability dG": 2.03},
      {"variant": "EIHIRTNGEEQARKVYKMLAKRNYDVKIEQGNGQWVVTAS", "folding stability dG": 0.849},
      {"variant": "EIHIRTNGEEQARKVYKMLAKRNYDVKIKQHNGQWVVTAS", "folding stability dG": 1.6},
      {"variant": "EIHIRTNGEEQARKVYKMLAKRNYDVKILQHNGQWVVTAS", "folding stability dG": 1.75},
      {"variant": "EIHIRTNGEEQARKVYKMLAKRNYDVKIMQHNGQWVVTAS", "folding stability dG": 1.93},
      {"variant": "EQHIRTNGEEQARKVYKMLAKRNYDVKIEQHNGQWVVTAS", "folding stability dG": 0.226},
      {"variant": "EWHIRTNGEEQARKVYKMLAKRNYDVKIEQHNGQWVVTAS", "folding stability dG": 2.36},
      {"variant": "ELHIRTNGEEQARKVYKMLAKRNYDVKIEQHNGQWVVTAS", "folding stability dG": 1.61},
      {"variant": "EIHIRTNGEEQARKFYKMLAKRNYDVKIEQHNGQWVVTAS", "folding stability dG": 1.93},
      {"variant": "EIHIRTNGEEQARKMYKMLAKRNYDVKIEQHNGQWVVTAS", "folding stability dG": 1.62},
      {"variant": "EIHIRTNGEEQARKVYKMLAKRNYDVKKEQHNGQWVVTAS", "folding stability dG": -0.269},
      {"variant": "EIHIRTNGEEQARKVYKMLAKRNYDVKQEQHNGQWVVTAS", "folding stability dG": -0.461},
      {"variant": "EIHIRTNGEEQARKVYKMLAKRNYDVKYEQHNGQWVVTAS", "folding stability dG": 0.682},
      {"variant": "EIHIRTNGEEQARKVYKMLAKRNYDVKAEQHNGQWVVTAS", "folding stability dG": 0.154},
      {"variant": "EIHIRTNGEEQARKVYKMLAKRNYDVKIEQHNGQWVVTAI", "folding stability dG": 2.05},
      {"variant": "EIHIRTNGEEQARKVYKMLAKRNYDVKIEQHNGQWVVTAT", "folding stability dG": 2.08},
      {"variant": "EIHIRTNGEEQARKVYKMLAKRNYDVKIEQHNGQWVVTAA", "folding stability dG": 1.54},
      {"variant": "EIHIRTNGEEQARKVYKMLAKRNYDVKIEQHNGQWVVTAN", "folding stability dG": 1.65},
      {"variant": "EIHIRTNGEEQARKVYKMLAKRNYDVKIEQHNGQWVVTAE", "folding stability dG": 1.02},
      {"variant": "EIHIRTNGEEQARKVYKMLAKRNYDVKIEQHNGQWVVTAV", "folding stability dG": 1.98},
      {"variant": "EIHIRTNGEEQARKVYKMLAKRNYDVKIEQHRGQWVVTAS", "folding stability dG": 1.3},
      {"variant": "EIHIRTNGEEQARKVYKMLAKRNYDVKIEQHPGQWVVTAS", "folding stability dG": 0.291},
      {"variant": "EIHIRTNTEEQARKVYKMLAKRNYDVKIEQHNGQWVVTAS", "folding stability dG": 2.86},
      {"variant": "EIHIRTNKEEQARKVYKMLAKRNYDVKIEQHNGQWVVTAS", "folding stability dG": 2.1},
      {"variant": "EIHIRTNDEEQARKVYKMLAKRNYDVKIEQHNGQWVVTAS", "folding stability dG": 2.96},
      {"variant": "EIHIRTNGEEQARKVYKMLAKRNYDTKIEQHNGQWVVTAS", "folding stability dG": 0.533}
    ]}
  ]
}
